IntAct's records for PubMed 18084303

B1: Neuroligin-1 (Mus musculus), Q99K10-1 (parent)
chain: MALPRCMWPNYVWRAMMACVVHRGSGAPLTLCLLGCLLQTFHVLSQKLDDVDPLVTTNFGKIRGIKKELNNEILGPVIQFLGVPYAAPPTGEHRFQPPEPPSPWSDIRNATQFAPVCPQNIIDGRLPEVMLPVWFTNNLDVVSSYVQDQSEDCLYLNIYVPTEDGPLTKKHTDDLGDNDGAEDEDIRDSGGPKPVMVYIHGGSYMEGTGNLYDGSVLASYGNVIVITVNYRLGVLGFLSTGDQAAKGNYGLLDLIQALRWTSENIGFFGGDPLRITVFGSGAGGSCVNLLTLSHYSEGNRWSNSTKGLFQRAIAQSGTALSSWAVSFQPAKYARILATKVGCNVSDTVELVECLQKKPYKELVDQDVQPARYHIAFGPVIDGDVIPDDPQILMEQGEFLNYDIMLGVNQGEGLKFVENIVDSDDGVSASDFDFAVSNFVDNLYGYPEGKDVLRETIKFMYTDWADRHNPETRRKTLLALFTDHQWVAPAVATADLHSNFGSPTYFYAFYHHCQTDQVPAWADAAHGDEVPYVLGIPMIGPTELFPCNFSKNDVMLSAVVMTYWTNFAKTGDPNQPVPQDTKFIHTKPNRFEEVAWTRYSQKDQLYLHIGLKPRVKEHYRANKVNLWLELVPHLHNLNDISQYTSTTTKVPSTDITLRPTRKNSTPVTSAFPTAKQDDPKQQPSPFSVDQRDYSTELSVTIAVGASLLFLNILAFAALYYKKDKRRHDVHRRCSPQRTTTNDLTHAPEEEIMSLQMKHTDLDHECESIHPHEVVLRTACPPDYTLAMRRSPDDIPLMTPNTITMIPNTIPGIQPLHTFNTFTGGQNNTLPHPHPHPHSHSTTRV

Variants of: B1
Conditions: with NRXN1, P58400-1
NRXN1, P58400-1, sequence (P58400 other isoform, or with tags, fused parts or gaps): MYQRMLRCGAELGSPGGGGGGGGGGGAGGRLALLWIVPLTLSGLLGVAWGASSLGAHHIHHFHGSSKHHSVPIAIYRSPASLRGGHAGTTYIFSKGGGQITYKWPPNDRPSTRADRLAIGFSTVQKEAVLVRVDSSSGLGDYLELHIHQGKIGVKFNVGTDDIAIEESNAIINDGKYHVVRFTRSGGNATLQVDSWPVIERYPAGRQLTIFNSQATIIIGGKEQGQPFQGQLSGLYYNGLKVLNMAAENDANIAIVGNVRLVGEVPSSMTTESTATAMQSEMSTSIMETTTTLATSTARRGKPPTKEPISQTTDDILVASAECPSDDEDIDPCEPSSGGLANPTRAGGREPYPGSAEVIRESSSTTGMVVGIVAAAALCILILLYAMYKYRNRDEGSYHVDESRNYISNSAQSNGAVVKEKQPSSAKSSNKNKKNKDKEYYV

Variant | effect of a mutation on the interaction
E397A | disrupting interaction
N400A | disrupting interaction
